Test results from article PMC3769240.

Biological target: Non-structural NS1 protein of human respiratory syncytial virus (hRSV) strain A (human respiratory syncytial virus strain A) (UniProt P0DOE9)
Test: dynamic light scattering; NS1SOs made by heat (10 minutes at 70°C in Tris 10 mM pH 8, DTT 1 mM); measured at 20°C

“Non-structural NS1 protein of human respiratory syncytial virus (hRSV) strain A (from UniProt P0DOE9 1-139) (natural protein)” showed a stoichiometry N (NS1 monomers per molecule of oligomer) of 149.
